Assays:
[1] = biological target: T1, FLAG-tagged human RSPO3 (Genentech) (human, UniProt Q9BXY4 22-272); test: competitive binding ELISA: titrated against biotinylated RNF43-Flag (RNF43-ECD) binding to plate-coated hRSPO3; signal = bound RNF43, normalized OD
T1 construct: also called hRSPO3; RSPO3 coated plates; not shown: FLAG tag
T1 sequence: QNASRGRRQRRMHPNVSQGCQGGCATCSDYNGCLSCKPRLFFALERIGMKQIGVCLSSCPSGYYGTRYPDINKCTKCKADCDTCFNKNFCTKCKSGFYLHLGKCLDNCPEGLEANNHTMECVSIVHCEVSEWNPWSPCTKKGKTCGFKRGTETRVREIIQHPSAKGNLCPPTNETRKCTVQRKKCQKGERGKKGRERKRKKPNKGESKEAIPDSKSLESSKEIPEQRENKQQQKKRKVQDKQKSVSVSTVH

[2] = biological target: T2, mouse RSPO3 (mouse, UniProt Q2TJ95 22-277, limits assumed); test: cell-based or functional assay
T2 sequence (looked up): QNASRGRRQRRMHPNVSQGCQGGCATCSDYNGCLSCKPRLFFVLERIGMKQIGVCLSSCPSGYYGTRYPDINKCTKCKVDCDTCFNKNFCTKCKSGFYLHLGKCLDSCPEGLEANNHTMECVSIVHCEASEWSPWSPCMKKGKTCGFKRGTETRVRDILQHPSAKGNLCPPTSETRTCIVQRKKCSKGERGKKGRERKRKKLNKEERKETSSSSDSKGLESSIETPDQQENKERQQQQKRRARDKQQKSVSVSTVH

[3] = biological target: T3, recombinant human RSPO3 (human, UniProt Q9BXY4 22-272); test: cell-based or functional assay
T3 sequence: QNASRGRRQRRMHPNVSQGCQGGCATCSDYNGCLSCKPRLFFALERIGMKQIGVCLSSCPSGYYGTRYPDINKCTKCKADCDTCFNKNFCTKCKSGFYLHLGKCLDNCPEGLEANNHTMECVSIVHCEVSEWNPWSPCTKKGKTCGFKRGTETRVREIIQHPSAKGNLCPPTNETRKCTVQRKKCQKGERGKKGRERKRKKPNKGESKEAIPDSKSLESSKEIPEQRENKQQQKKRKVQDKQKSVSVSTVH

[4] = biological target: T4, cynomolgus RSPO3 (cynomolgus, UniProt A0A2K5UTQ7 22-273); test: cell-based or functional assay
T4 sequence: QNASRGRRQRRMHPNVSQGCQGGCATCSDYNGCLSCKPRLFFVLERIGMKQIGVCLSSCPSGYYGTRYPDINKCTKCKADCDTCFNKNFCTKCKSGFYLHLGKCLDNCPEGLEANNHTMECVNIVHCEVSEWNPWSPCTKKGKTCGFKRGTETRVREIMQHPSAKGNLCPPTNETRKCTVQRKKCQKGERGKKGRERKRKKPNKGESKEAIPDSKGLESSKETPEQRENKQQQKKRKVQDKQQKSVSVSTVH

[5] = biological target: mouse RSPO2 (mouse, UniProt Q8BFU0 22-205, limits assumed); test: cell-based or functional assay
Sequence of mouse RSPO2 (Q8BFU0 22-205 limits assumed): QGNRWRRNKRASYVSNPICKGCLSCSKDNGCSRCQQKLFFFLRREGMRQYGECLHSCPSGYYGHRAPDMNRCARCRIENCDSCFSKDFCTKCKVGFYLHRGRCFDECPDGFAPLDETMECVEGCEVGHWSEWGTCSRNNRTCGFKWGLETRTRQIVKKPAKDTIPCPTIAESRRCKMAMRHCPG

[6] = biological target: recombinant human RSPO2 (human, UniProt Q6UXX9 22-243); test: cell-based or functional assay
Sequence of recombinant human RSPO2 (Q6UXX9 22-243): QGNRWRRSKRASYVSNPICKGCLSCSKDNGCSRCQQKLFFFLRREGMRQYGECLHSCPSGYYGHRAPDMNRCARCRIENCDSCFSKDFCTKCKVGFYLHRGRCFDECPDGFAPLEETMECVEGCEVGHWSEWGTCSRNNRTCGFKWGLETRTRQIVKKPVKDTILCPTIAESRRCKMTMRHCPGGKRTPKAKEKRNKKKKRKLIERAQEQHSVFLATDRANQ

[7] = biological target: cynomolgus RSPO2 (cynomolgus, UniProt G7PCH9 22-243); test: cell-based or functional assay
Sequence of cynomolgus RSPO2 (G7PCH9 entry or part of it): as the sequence (Q6UXX9 22-243) above, with V160A, L165P, T178A counted along it

[8] = biological target: T5, human RSPO1 with C-terminal HA tag, stably expressed in 293 cells (human, UniProt Q2MKA7 21-263); test: IHC, FFPE 293 cell pellet, RSPO1 Hi; - = not significant staining
T5 construct: also called hRSPO1; RSPO1 Hi
T5 sequence (Q2MKA7 other isoform, or with tags, fused parts or gaps limits assumed): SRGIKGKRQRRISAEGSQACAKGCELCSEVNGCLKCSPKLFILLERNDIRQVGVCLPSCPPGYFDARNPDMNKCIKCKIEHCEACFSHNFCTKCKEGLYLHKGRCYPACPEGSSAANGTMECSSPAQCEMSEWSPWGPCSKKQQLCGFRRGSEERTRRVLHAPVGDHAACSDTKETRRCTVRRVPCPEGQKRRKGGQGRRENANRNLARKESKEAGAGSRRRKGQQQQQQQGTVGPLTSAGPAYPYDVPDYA

[9] = biological target: T6, human RSPO2 with C-terminal HA tag, stably expressed in 293 cells (human, UniProt Q6UXX9 22-243); test: IHC, FFPE 293 cell pellet, RSPO2 Hi; - = not significant staining
T6 construct: Whole open reading frame was expressed from a lentiviral vector in HEK-293 cells sorted for high, medium or low expression; formalin-fixed paraffin-embedded pellets; also called hRSPO2; RSPO2 Hi
T6 sequence (Q6UXX9 other isoform, or with tags, fused parts or gaps): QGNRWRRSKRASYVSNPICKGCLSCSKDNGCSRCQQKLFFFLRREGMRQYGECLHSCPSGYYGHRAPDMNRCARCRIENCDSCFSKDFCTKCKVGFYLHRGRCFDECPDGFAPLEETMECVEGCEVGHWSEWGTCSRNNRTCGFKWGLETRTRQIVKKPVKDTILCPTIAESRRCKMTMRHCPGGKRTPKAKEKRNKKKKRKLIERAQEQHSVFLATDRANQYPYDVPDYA

[10] = biological target: T1, FLAG-tagged human RSPO3 (Genentech); test: competitive binding ELISA: antibody titrated against LGR4-Fc (LGR4-ECD) binding to plate-coated hRSPO3; signal = bound LGR4-Fc, OD(450/630)/OD no antibody
Outline: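 Plates coated with 0.5 μg/ml hRSPO2 or hRSPO3 at pH 9.6 were incubated 2 h at room temperature with antibody (0.078-10 […] dilutions) plus 0.1 μg/ml LGR4-Fc. Bound LGR4-Fc was detected by HRP anti-human Fc and TMB, with absorbance read at 450 nm.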

[11] = biological target: T7, human RSPO4 with C-terminal HA tag, stably expressed in 293 cells (human, UniProt Q2I0M5 20-234); test: IHC, FFPE 293 cell pellet, RSPO4 Hi; - = not significant staining
T7 construct: also called hRSPO4; RSPO4 Hi
T7 sequence (Q2I0M5 other isoform, or with tags, fused parts or gaps limits assumed): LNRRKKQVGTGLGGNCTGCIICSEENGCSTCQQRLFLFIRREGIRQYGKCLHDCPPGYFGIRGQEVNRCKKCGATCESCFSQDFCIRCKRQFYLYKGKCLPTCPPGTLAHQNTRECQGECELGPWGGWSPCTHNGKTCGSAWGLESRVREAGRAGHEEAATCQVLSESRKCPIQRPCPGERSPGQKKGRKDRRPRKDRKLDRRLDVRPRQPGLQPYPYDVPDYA

[12] = biological target: T8, human RSPO3 with C-terminal HA tag, stably expressed in 293 cells (human, UniProt Q9BXY4 22-272); test: IHC, FFPE 293 cell pellet, RSPO3 Hi
T8 construct: Whole open reading frame expressed in HEK-293 cells (high, medium, low); FFPE pellets; also called hRSPO3; RSPO3 Hi
T8 sequence: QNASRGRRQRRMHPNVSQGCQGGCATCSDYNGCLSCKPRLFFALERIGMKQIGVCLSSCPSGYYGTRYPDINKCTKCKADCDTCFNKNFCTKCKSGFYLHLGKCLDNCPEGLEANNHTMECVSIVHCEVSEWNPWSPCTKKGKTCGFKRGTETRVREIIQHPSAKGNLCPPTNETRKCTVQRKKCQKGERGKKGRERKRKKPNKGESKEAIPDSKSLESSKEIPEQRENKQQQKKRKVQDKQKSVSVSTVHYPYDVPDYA

[13] = biological target: T8, human RSPO3 with C-terminal HA tag, …; test: IHC, FFPE 293 cell pellet, RSPO3 Low
[14] = biological target: T8, human RSPO3 with C-terminal HA tag, …; test: IHC, FFPE 293 cell pellet, RSPO3 Med

- IC50 (read off the curve) [1]: ~0.08 µg/mL
- IC50, WNT luciferase reporter, bivalent antibody [2]: 0.5 nM
- IC50, WNT luciferase reporter, bivalent antibody [3]: 0.09 nM
- IC50, WNT luciferase reporter, bivalent antibody [4]: 0.31 nM
- IC50, WNT luciferase reporter, bivalent antibody [5]: > 500 nM
- IC50, WNT luciferase reporter, bivalent antibody [6]: > 500 nM
- IC50, WNT luciferase reporter, bivalent antibody [7]: > 500 nM
- binding result [8]: no binding
- binding result [9]: no binding
- IC50 (read off the curve) [10]: ~0.1 µg/mL
- binding result [11]: no binding
- percentage of cells staining [12]: 90%
- percentage of cells staining [13]: 20%
- percentage of cells staining [14]: 80%
B1: 5E11 (antibody, V domains shown)
VH: QVQLKQSGPGLVQPSQSLSITCTVSGFSLSSYAVHWVRQSPGEGLEWLGVIWSGGSTDYNAAFISRMSITKDNSKSQVFFKMNSLQADDTAIYFCARNDGYYYFDYWGQGTTLTVSS
VL: DIVMTQSTSSLSASLGDRVTISCRASQDISNYLNWYQQKPDGTVKLLIYYTSRLHSGVPSRFSGSGSGTDYSLTISNLEKEDVATYFCQHGDTLPPTFGGGTKLEIK
notes: also called monoclonal antibody 5E11
